From the Human Domainome abundance scans (Beltran et al. 2025)

B1: POU domain, class 3, transcription factor 3, residues 320 to 388; numbered along this chain, P20264 (parent)
chain: DDLEQFAKQFKQRRIKLGFTQADVGLALGTLYGNVFSQTTICRFEALQLSFKNMCKLKPLLNKWLEEAD

Variants of: B1
Assay: abundance fitness (aPCA) (normalised: wild type 0, dead -1); higher = more abundant; growth selection in yeast, the domain comes from the species named
Settings: Homo sapiens

Abundance fitness: each site, then its substitutions
G29: F -0.388, A 0.056, N 0.041, T -0.004, D -0.736, C -0.594, K -0.01, M -0.427, I -0.464, E -0.02, H -0.154, Y -0.108, W -0.478, L -0.929, R 0.02, Q -0.554, P -0.658, S 0.092, V -0.468
T39: E 0.11, D 0.014, F -0.509, H 0.074, A -0.011, I -0.157, G -0.215
Q21: R -0.184, V -0.017, K -0.298, T -0.507, I 0.145, E -0.061, S -0.242, A -0.281, M -0.489, G -0.629, W -0.284, C -0.278, H -0.08, Y -0.147, L -0.271, P -0.23
L31: D -0.017, R 0.031, M -0.156, I 0.076, F -0.023, G -0.565, A -0.299, H -0.229, Q -0.116, W -0.387, Y -0.334, K -0.118, P -0.551, V -0.195, S -0.137, C -0.237
A27: G -0.262, K 0.021, E -0.375, L -0.456, Q 0.228, C 0.232, V -0.509, H -0.022, W -0.101, R 0.031, D -0.613, S -0.239, M -0.427, Y -0.502, P -0.8, I -0.711
D23: I -0.704, V -0.937, G -0.185, S -0.743, R -0.187, P -1.04, F -0.998, Y -0.778, M -0.802, Q 0.039, N -0.687, E -0.023, K -0.764
T20: P -0.627, A -0.556, L -0.828, S -0.079, G -0.556, W -0.862, R -0.908, V -1.02, K -0.738
Y32: M -0.647, W -0.276, S 0.108, P -0.685, K -0.559, A -0.412, Q -0.102, R -0.44, D -0.352, E -0.335, H -0.099, V -0.557, L 0.017, G -0.225, T -0.526
S37: T -0.337, Q -0.386, D -0.157, E -0.32, R -0.55, N -0.338, L -0.629, Y -0.725, H -0.076, K -0.532, G -0.44, C -0.629, A -0.246, F -0.841, V -0.7
G18: H -0.749, M -0.778, P -0.964, A -0.542, R -0.532, Q -0.785, S -0.906, K -0.546, W -1.06, V -0.851, N -0.029, L -0.935, E -0.893
R14: Y -0.764, W -0.944
I15: P -0.501, F -0.249, L -0.252, S -0.17, W -0.751, M -0.426, G -0.778, H -0.875, E 0.058, R -0.421, K -0.336, Q -0.052
L26: W -0.24, S 0.071, A 0.005, Q 0.017, G -0.227, M 0.058, V -0.147, D -0.016, Y 0.035, K -0.076, E 0.133, C -0.045, R 0.128, T -0.515
L28: N -0.71, T -0.8, W -0.981, S -0.94, Q -0.747, G -0.943, K -0.682, M -0.594, V -0.703, A -0.639, R -1.02
Q38: P -0.028, T 0.079, D -0.075, V -0.421, A -0.143, R -0.103, L -0.531, K -0.18, C -0.32, S -0.082, E 0.192, G 0.003, N -0.435, H -0.524, F -0.356, M -0.498, Y -0.207
N34: E 0.136, C 0.307, H -0.094, D -0.085, M -0.22, Q -0.172, W -0.84, G 0.074, I -0.235, A -0.036, S 0.109, L -0.468, V -0.21, Y -0.295, R -0.051, K 0.081, T -0.098, F -0.569
F19: W -0.408, K -0.426, E -0.495, G -1.03, A -0.243, I 0.119, S -0.848, P -0.625, V -0.236, R -0.466, L -0.202
F36: L -0.07, W -0.714, K -0.364, R 0.368, T 0.071, P -0.043, A -0.068, V 0.017, E -0.121, Q -0.214, H -0.216, Y -0.04, C 0.219, M 0.021
T30: A 0.063, R -0.08, S 0.01, Q 0.1, I -0.446, M -0.077, N -0.348, H -0.232, E -0.177, L -0.325, W -0.421, P -0.115, D -0.062, K 0.336, G -0.013, F -0.514, V -0.034, Y -0.459
G33: I -0.7, V -1.09, D -0.545, A -0.382, H -0.753, S -0.885, F -0.766, Q -0.263, L -0.922, P -0.204, W -0.722, Y -0.523, M -0.792
V35: F -0.179, G -0.204, C -0.417, A -0.537, P -0.105, D 0.091, Y -0.108, R -0.009, E 0.172, M -0.278, T 0.304, N -0.601, Q 0.033, L -0.462, S -0.125, H -0.152, I -0.609
G25: A 0.161, R -0.3, Q -0.682, C 0.103, M -0.754, S -0.069, V -0.815, T -0.36, N -0.753
K16: R -0.088, L -0.064, C -0.543, A 0.004, W -0.696, S -0.33, Q -0.043, E -0.382, Y -0.088, M -0.282, F -0.569, D -0.102, T 0.021
V24: W -1.05, L -0.679, S -0.941, C -0.531, R -0.788, N -0.74, D -0.882, I -0.766, K -0.899, A -0.677, P -0.673, F 0.197
A22: P -0.849, L -0.49, S -0.243, T -0.162, I -0.392, G -0.25, E -0.17, K 0.103, Q 0.036, H 0.228, V -0.513, W -0.83, F -0.293, R -0.163
